{
  "source": "patent US20250277031A1",
  "about": "(BEIJING HANMI PHARMACEUTICAL, published 2025)",
  "binders": {"B1": {"name": "chimeric anti-human CD47 monoclonal antibody mAb-18-5 (antibody, human IgG1, kappa)", "heavy": "not shown", "light": "DIVMTQSQKFMSTSVGDRVSITCKASQNVRTSIAWYQQKSGQSPKTLIYLASNRHTGVPDRFTGSGSGTDFTLTISNVQSEDLADYFCLQHWNYPFTFGSGTKLEIKRTVAAPSVFIFPPSDEQLKSGTASVVCLLNNFYPREAKVQWKVDNALQSGNSQESVTEQDSKDSTYSLSSTLTLSKADYEKHKVYACEVTHQGLSSPVTKSFNRGEC"}},
  "key": {"[1]": {"target": "T1, rat CD47 on rat red blood cells (rat, UniProt P97829 19-303)", "T1 construct": "whole, on cells; also called Rat RBCs", "T1 sequence (looked up)": "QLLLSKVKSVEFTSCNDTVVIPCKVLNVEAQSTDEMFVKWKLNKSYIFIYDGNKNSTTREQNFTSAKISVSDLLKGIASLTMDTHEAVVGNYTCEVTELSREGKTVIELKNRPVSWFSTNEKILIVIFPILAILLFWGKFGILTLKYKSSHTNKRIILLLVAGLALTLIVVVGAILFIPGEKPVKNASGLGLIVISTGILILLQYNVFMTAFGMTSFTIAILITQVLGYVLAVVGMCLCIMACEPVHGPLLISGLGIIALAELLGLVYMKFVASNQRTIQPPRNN", "assay": "flow cytometry on rat RBCs", "protocol": "(§1) The species specificity of the chimeric anti-human CD47 monoclonal antibodies was determined by flow cytometer FACS. Normal human RBCs internally donated, cynomolgus RBCs, rat RBCs and mouse RBCs were collected, washed once with cold PBS (GIBCO, Catalog number 14190) containing 2% FBS (Hyclone, Catalog number SH30084.03). The RBCs (2×10⁶ cells per tube) were resuspended in 100 μL of cold PBS containing 2% FBS, and the serially diluted anti-human CD47 antibody samples and the control CC-90002 and the isotype control were added therein. Flow tubes were incubated on ice for 30 minutes. The cells were washed twice with PBS containing 2% FBS. Then the pellets were resuspended in 200 μL of cold PBS containing 2% FBS and FITC-labeled anti-human IgG antibody diluted 1:1000 (Beijing Zhongshan Golden Bridge, Catalog number ZF0306), incubated on ice for 30 minutes in the dark. The cells were washed twice with PBS containing 2% FBS, then resuspended in 500 μL of cold PBS. The cell suspension obtained was detected and analyzed on a flow cytometer (BD, FACS Calibur), and the fluorescence intensities of the RBCs were read."}, "[2]": {"target": "T2, mouse CD47 on mouse red blood cells (mouse, UniProt Q61735 19-303)", "T2 construct": "whole, on cells; also called Mouse RBCs", "T2 sequence (looked up)": "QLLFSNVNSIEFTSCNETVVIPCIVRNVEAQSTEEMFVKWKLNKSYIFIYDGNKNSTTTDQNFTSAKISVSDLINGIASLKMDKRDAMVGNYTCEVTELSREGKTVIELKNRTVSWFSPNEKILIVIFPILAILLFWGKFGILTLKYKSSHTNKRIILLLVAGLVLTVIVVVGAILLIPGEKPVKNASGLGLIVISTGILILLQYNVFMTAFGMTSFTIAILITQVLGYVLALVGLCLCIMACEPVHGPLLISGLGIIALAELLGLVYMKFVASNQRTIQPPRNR", "assay": "flow cytometry on mouse RBCs", "protocol": "as §1"}, "[3]": {"target": "T3, recombinant human CD47 (human, UniProt Q08722 19-139)", "T3 construct": "also called antigen CD47", "T3 sequence (Q08722 19-139 limits assumed)": "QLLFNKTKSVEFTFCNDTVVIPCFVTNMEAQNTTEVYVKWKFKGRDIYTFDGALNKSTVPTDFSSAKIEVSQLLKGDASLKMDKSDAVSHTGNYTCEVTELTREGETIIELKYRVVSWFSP", "assay": "ELISA, plate coated with 1 µg/mL recombinant human CD47, OD450", "protocol": "A 96-well high-adsorption ELISA plate was coated with 1 μg/mL of the recombinant human CD47 (Sino Biological Inc.) at 100 μL per well using carbonate buffer solution, pH=9.6 at 4° C. overnight. The plate was washed 5 times with PBST, and then blocked using PBST with 1% BSA, 300 μL/well, and incubated at 25° C. for 1 hour, and then washed 5 times with PBST. The anti-human CD47 antibody samples and the control CC-90002 (a patent sequence from WO2016109415) were added, 100 μL/well, incubated at 25° C. for 1 hour, and then washed 5 times with PBST. The horseradish peroxidase-labeled anti-mouse IgG antibody (Abcam, catalog number Ab7068) diluted 1:10000 in PBST with 1% BSA was then added, 100 μL per well, and incubated at 25° C. for 1 hour. The plate was washed 5 times with PBST. The colorimetric substrate TMB was added, 100 μL/well, and developed at room temperature for 10 minutes. 1M H₂SO₄ was added, 100 μL/well, to stop the development. The absorbance at 450 nm was read on a microplate reader."}, "[4]": {"target": "T3, recombinant human CD47", "assay": "ELISA, plate coated with 1 µg/mL recombinant human CD47, anti-human IgG-HRP, OD450", "protocol": "Species specificity of the chimeric anti-human CD47 mAbs was determined by ELISA. A 96-well high-adsorption ELISA plate was coated with 1 μg/mL of the recombinant human CD47, cynomolgus CD47, rat CD47 and mouse CD47, at 100 μL per well using carbonate buffer solution, pH=9.6 at 4° C. overnight. The plate was washed 5 times with PBST, and then blocked using PBST with 1% BSA, 300 μL/well, and incubated at 25° C. for 1 hour, and then washed 5 times with PBST. The chimeric anti-human CD47 antibody samples serially diluted in PBST with 1% BSA were added, 100 μL/well, incubated at 25° C. for 1 hour, and then washed 5 times with PBST. The horseradish peroxidase-labeled anti-human IgG antibody (Chemicon, catalog number AP309P) diluted 1:10000 in PBST with 1% BSA was then added, 100 μL per well, and incubated at 25° C. for 1 hour. The plate was washed 5 times with PBST. The colorimetric substrate TMB was added, 100 μL/well, and developed at room temperature for 10 minutes. 1M H₂SO₄ was added, 100 μL/well, to stop the development. The absorbance at 450 nm was read on a microplate reader."}, "[5]": {"target": "T4, recombinant human CD47-Fc protein (ACROBiosystems, catalog number CD7-H52A5) (human, UniProt Q08722 19-139)", "T4 construct": "bought; not shown: Fc part of a bought fusion protein, not described", "T4 sequence (Q08722 19-139 limits assumed)": "as above", "assay": "blocking ELISA: plate coated with human CD47-Fc, 2 nM biotin-labelled SIRPα as the blocked ligand, falling OD450 curve; the sheet labels the half-maximal value EC50", "protocol": "A 96-well high-adsorption ELISA plate was coated with 1 μg/mL of the recombinant human CD47-Fc (ACROBiosystems) at 100 μL per well using carbonate buffer solution, pH=9.6 at 4° C. overnight. The plate was washed 5 times with PBST, and then blocked using PBST with 1% BSA, 300 μL/well, and incubated at 25° C. for 1 hour, and then washed 5 times with PBST. The anti-human CD47 antibody samples were added, 50 μL/well, the biotin-labelled SIRPα (ACROBiosystems) was added at a concentration of 4 nM (a final concentration of 2 nM), 50 μL/well, incubated at 25° C. for 90 minutes, and then washed 5 times with PBST. The Streptavidin-HRP (BD Pharmingen, catalog number 554066) diluted 1:1000 in PBST with 1% BSA was then added, 100 μL per well, and incubated at 25° C. for 1 hour. The plate was washed 5 times with PBST. The colorimetric substrate TMB was added, 100 μL/well, and developed at room temperature for 10 minutes. 1M H₂SO₄ was added, 100 μL/well, to stop the development. The absorbance at 450 nm was read on a microplate reader."}},
  "data": [
    {"binder": "B1", "values": [
      {"measurement": "binding result", "setting": "[1]", "value": "no binding"},
      {"measurement": "binding result", "setting": "[2]", "value": "no binding"},
      {"measurement": "EC50", "setting": "[3]", "value": 0.026, "unit": "nM"},
      {"measurement": "EC50", "setting": "[4]", "value": 0.086, "unit": "nM"},
      {"measurement": "IC50", "setting": "[5]", "value": 1.86, "unit": "nM"}
    ]}
  ]
}
